Article PMC3296735

Tests used:
[1] = target: N82Q-GLP1R-V5 (human) (UniProt P43220)
[2] = target: human GLP1R with C-terminal V5 epitope (GLP1R-V5) (human) (UniProt P43220)
[3] = target: N115Q-GLP1R-V5 (human) (UniProt P43220)
[4] = target: N63,82,115Q-GLP-1R-V5 (human) (UniProt P43220)
[5] = target: N63Q-GLP1R-V5 (human) (UniProt P43220)
[6] = target: N63,82Q-GLP-1R-V5 (human) (UniProt P43220)
[7] = target: T1, human GIPR with C-terminal V5 epitope (GIPR-V5) (human) (UniProt P48546)
T1 sequence: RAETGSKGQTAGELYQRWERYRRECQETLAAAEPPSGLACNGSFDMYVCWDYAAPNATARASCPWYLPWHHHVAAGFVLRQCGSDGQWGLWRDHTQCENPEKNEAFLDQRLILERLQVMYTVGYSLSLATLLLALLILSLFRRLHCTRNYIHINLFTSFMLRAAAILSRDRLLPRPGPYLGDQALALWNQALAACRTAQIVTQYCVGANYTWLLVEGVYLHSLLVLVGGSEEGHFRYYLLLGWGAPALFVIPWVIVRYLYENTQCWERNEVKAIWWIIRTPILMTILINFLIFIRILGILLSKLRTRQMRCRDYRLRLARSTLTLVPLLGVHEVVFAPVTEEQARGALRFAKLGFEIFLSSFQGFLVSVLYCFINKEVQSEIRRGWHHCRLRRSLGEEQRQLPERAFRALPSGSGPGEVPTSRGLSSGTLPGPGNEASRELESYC

[8] = target: T2, N77Q-GIPR-V5 (human) (UniProt P48546)
T2 sequence: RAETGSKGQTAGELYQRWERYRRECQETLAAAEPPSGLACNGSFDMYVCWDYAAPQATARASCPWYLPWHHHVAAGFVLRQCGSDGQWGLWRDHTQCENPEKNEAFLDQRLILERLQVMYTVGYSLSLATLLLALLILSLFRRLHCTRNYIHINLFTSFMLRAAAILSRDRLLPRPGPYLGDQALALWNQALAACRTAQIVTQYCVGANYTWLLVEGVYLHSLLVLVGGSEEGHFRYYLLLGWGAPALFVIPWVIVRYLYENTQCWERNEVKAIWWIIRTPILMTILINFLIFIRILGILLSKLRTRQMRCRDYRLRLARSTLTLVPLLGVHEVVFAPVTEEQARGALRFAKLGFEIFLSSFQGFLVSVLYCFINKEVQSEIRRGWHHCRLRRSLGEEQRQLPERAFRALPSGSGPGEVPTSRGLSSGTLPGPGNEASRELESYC

[9] = target: T3, N62Q-GIPR-V5 (human) (UniProt P48546)
T3 sequence: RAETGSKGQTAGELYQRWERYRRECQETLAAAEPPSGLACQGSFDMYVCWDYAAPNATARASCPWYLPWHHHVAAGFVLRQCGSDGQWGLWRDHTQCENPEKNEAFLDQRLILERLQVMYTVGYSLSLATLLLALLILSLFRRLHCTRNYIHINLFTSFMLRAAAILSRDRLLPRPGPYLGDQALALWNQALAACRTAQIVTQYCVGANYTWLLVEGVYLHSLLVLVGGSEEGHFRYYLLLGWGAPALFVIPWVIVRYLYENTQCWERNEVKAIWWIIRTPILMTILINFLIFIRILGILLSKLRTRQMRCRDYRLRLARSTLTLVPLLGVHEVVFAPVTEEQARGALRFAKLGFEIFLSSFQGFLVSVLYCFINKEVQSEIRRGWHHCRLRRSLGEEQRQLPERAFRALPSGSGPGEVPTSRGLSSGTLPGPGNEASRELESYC

[10] = target: T1, human GIPR with C-terminal V5 epitope (GIPR-V5) (human); remark: listed apart in the source
[11] = target: human GLP1R with C-terminal V5 epitope (GLP1R-V5) (human) (UniProt P43220); remark: listed apart in the source
[12] = cycloheximide chase western; protein remaining; conditions: glycan lost
[13] = calnexin co-immunolabelling intensity correlation (ER retention); conditions: glycan lost; control: wild type GLP-1R

GLP-1 7–36 amide (ligand)
EC50 of GLP-1 for cAMP production (LANCE TR-FRET, 30 min stimulation) in CHO cells expressing the receptor [1]: 0.71 nM
EC50 of GLP-1 for cAMP production (LANCE TR-FRET, 30 min stimulation) in CHO cells expressing the receptor; series with the double and triple mutants [2]: 0.22 nM
EC50 of GLP-1 for cAMP production (LANCE TR-FRET, 30 min stimulation) in CHO cells expressing the receptor; series with the single site mutants [2]: 0.41 nM
EC50 of GLP-1 for cAMP production (LANCE TR-FRET, 30 min stimulation) in CHO cells expressing the receptor [3]: 0.72 nM
EC50 of GLP-1 for cAMP production (LANCE TR-FRET, 30 min stimulation) in CHO cells expressing the receptor [4]: 2.7 nM
EC50 of GLP-1 for cAMP production (LANCE TR-FRET, 30 min stimulation) in CHO cells expressing the receptor [5]: 0.63 nM
EC50 of GLP-1 for cAMP production (LANCE TR-FRET, 30 min stimulation) in CHO cells expressing the receptor [6]: 0.58 nM

GIP peptide (Glucose-dependent Insulinotropic Polypeptide) (from UniProt P09681 52-93) (ligand)
EC50 of GIP for cAMP production (LANCE TR-FRET) in CHO cells expressing the receptor; series of Figure 8A [7]: 0.034 nM
EC50 of GIP for cAMP production (LANCE TR-FRET, 30 min stimulation) in CHO cells expressing the receptor [8]: 3.1 nM
EC50 of GIP for cAMP production (LANCE TR-FRET, 30 min stimulation) in CHO cells expressing the receptor [9]: 0.1 nM
EC50 of GIP for cAMP production (LANCE TR-FRET, 30 min stimulation) in CHO cells expressing the receptor [10]: 0.082 nM

B1: N62,77Q-GIPR-V5 (receptor)
chain: RAETGSKGQTAGELYQRWERYRRECQETLAAAEPPSGLACQGSFDMYVCWDYAAPQATARASCPWYLPWHHHVAAGFVLRQCGSDGQWGLWRDHTQCENPEKNEAFLDQRLILERLQVMYTVGYSLSLATLLLALLILSLFRRLHCTRNYIHINLFTSFMLRAAAILSRDRLLPRPGPYLGDQALALWNQALAACRTAQIVTQYCVGANYTWLLVEGVYLHSLLVLVGGSEEGHFRYYLLLGWGAPALFVIPWVIVRYLYENTQCWERNEVKAIWWIIRTPILMTILINFLIFIRILGILLSKLRTRQMRCRDYRLRLARSTLTLVPLLGVHEVVFAPVTEEQARGALRFAKLGFEIFLSSFQGFLVSVLYCFINKEVQSEIRRGWHHCRLRRSLGEEQRQLPERAFRALPSGSGPGEVPTSRGLSSGTLPGPGNEASRELESYC
rescue of the cAMP response to GIP (LANCE TR-FRET) in CHO cells co-expressing N62,77Q-GIPR-V5 and wild type GLP1R-V5; EC50 of GIP (neither receptor alone gave a response that could be fitted) [11]: 11 nM

B2: GIPR (GIP receptor): glycosylation deficient GIPR (N62,77Q) (protein)
parent chain: MTTSPILQLLLRLSLCGLLLQRAETGSKGQTAGELYQRWERYRRECQETLAAAEPPSGLACNGSFDMYVCWDYAAPNATARASCPWYLPWHHHVAAGFVLRQCGSDGQWGLWRDHTQCENPEKNEAFLDQRLILERLQVMYTVGYSLSLATLLLALLILSLFRRLHCTRNYIHINLFTSFMLRAAAILSRDRLLPRPGPYLGDQALALWNQALAACRTAQIVTQYCVGANYTWLLVEGVYLHSLLVLVGGSEEGHFRYYLLLGWGAPALFVIPWVIVRYLYENTQCWERNEVKAIWWIIRTPILMTILINFLIFIRILGILLSKLRTRQMRCRDYRLRLARSTLTLVPLLGVHEVVFAPVTEEQARGALRFAKLGFEIFLSSFQGFLVSVLYCFINKEVQSEIRRGWHHCRLRRSLGEEQRQLPERAFRALPSGSGPGEVPTSRGLSSGTLPGPGNEASRELESYC
degradation_or_half_life ([12]; control: wild type GIPR-V5): decreases

B3: GLP-1R (GLP1R): complete glycosylation-deficient mutant (N63,82,115Q) (protein)
parent chain: MAGAPGPLRLALLLLGMVGRAGPRPQGATVSLWETVQKWREYRRQCQRSLTEDPPPATDLFCNRTFDEYACWPDGEPGSFVNVSCPWYLPWASSVPQGHVYRFCTAEGLWLQKDNSSLPWRDLSECEESKRGERSSPEEQLLFLYIIYTVGYALSFSALVIASAILLGFRHLHCTRNYIHLNLFASFILRALSVFIKDAALKWMYSTAAQQHQWDGLLSYQDSLSCRLVFLLMQYCVAANYYWLLVEGVYLYTLLAFSVLSEQWIFRLYVSIGWGVPLLFVVPWGIVKYLYEDEGCWTRNSNMNYWLIIRLPILFAIGVNFLIFVRVICIVVSKLKANLMCKTDIKCRLAKSTLTLIPLLGTHEVIFAFVMDEHARGTLRFIKLFTELSFTSFQGLMVAILYCFVNNEVQLEFRKSWERWRLEHLHIQRDSSMKPLKCPTSSLSSGATAGSSMYTATCQASCS
localisation_or_trafficking, other: Pearson correlation [13]: increases, just under 50% vs low level of correlation

B4: GLP-1R (GLP1R): glycosylation deficient GLP-1R (N63,82,115Q) (protein)
parent chain: MAGAPGPLRLALLLLGMVGRAGPRPQGATVSLWETVQKWREYRRQCQRSLTEDPPPATDLFCNRTFDEYACWPDGEPGSFVNVSCPWYLPWASSVPQGHVYRFCTAEGLWLQKDNSSLPWRDLSECEESKRGERSSPEEQLLFLYIIYTVGYALSFSALVIASAILLGFRHLHCTRNYIHLNLFASFILRALSVFIKDAALKWMYSTAAQQHQWDGLLSYQDSLSCRLVFLLMQYCVAANYYWLLVEGVYLYTLLAFSVLSEQWIFRLYVSIGWGVPLLFVVPWGIVKYLYEDEGCWTRNSNMNYWLIIRLPILFAIGVNFLIFVRVICIVVSKLKANLMCKTDIKCRLAKSTLTLIPLLGTHEVIFAFVMDEHARGTLRFIKLFTELSFTSFQGLMVAILYCFVNNEVQLEFRKSWERWRLEHLHIQRDSSMKPLKCPTSSLSSGATAGSSMYTATCQASCS
degradation_or_half_life ([12]; control: wild type GLP-1R-V5): decreases
